Legend:
Bcl-XL = molecular target: T1, Bcl-XL (UniProt Q07817-1 1-209); experiment: fluorescence polarisation competition; tracer Bak BH3 carboxyfluorescein 15 nM, Bcl-XL 100 nM
T1 construct: also called anti-apoptotic member of the Bcl-2 protein family
Experimental: (§1) The following reagents are mixed together in the order stated: [0089] a) competitor peptide at a final concentration of from 1 nM to 100 μM; [0090] b) fluorescent peptide ligand (Bak BH3 carboxyfluorescein) at a final concentration of 15 nM; [0091] c) anti-apoptotic member of the Bcl-2 protein family at a final concentration of 100 nM for Bcl-XL and of 1 μM for Bcl-2 and Bcl-W.
(§2) The mixture is then incubated for 30 minutes at ambient temperature and the fluorescence polarisation is determined on a Fusion apparatus (Packard) (excitation at 485 nm and reading at 530 nm). The values are given in mP (unit of fluorescence polarisation).

Bcl-2 = molecular target: T2, Bcl-2 (UniProt P10415-1 1-211, limits assumed); experiment: fluorescence polarisation competition; tracer Bak BH3 carboxyfluorescein 15 nM, Bcl-2 1 µM
T2 construct: also called anti-apoptotic member of the Bcl-2 protein family
T2 sequence (P10415 1-211 limits assumed): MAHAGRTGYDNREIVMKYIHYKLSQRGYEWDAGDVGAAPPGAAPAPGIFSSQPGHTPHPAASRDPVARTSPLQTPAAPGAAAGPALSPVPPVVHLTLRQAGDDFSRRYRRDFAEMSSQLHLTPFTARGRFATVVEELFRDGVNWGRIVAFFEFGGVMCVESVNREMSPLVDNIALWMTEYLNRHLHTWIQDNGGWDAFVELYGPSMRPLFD
Experimental: as §1, §2

Bcl-W = molecular target: T3, Bcl-W (UniProt Q92843-1 1-172, limits assumed); experiment: fluorescence polarisation competition; tracer Bak BH3 carboxyfluorescein 15 nM, Bcl-W 1 µM
T3 construct: also called anti-apoptotic member of the Bcl-2 protein family
T3 sequence (looked up): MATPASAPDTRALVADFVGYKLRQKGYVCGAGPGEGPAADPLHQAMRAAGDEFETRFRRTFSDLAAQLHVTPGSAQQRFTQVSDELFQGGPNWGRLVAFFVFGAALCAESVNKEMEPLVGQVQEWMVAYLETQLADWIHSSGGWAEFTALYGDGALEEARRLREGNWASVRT
Experimental: as §1, §2

T1 sequence (Q07817 1-209): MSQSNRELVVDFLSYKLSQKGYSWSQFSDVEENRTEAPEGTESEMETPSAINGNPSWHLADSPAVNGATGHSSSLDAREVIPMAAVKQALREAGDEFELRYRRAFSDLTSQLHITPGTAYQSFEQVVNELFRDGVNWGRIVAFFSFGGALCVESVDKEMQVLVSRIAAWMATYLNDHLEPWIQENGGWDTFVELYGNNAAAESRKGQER

B1: Beclin peptide, motif GTMENLSRRLKVTGDLFDIMSGQTDV of the Beclin protein (peptide)
peptide: GTMENLSRRLKVTGDLFDIMSGQTDV
Ki (Bcl-XL): 1150 nM | Ki (Bcl-2): 1800 nM | Ki (Bcl-W): 7400 nM
